Assay results as given in article PMC5736413.

Tests used:
[1] = molecular target: recombinant mouse C3d (C1010A) (mouse) (UniProt P01027); assay: SPR
[2] = molecular target: FH19–20 19–20 (Homo sapiens) (UniProt P08603); assay: SPR; settings: cited from earlier work
Sequence of FH19–20 19–20 (Homo sapiens) (P08603 1104-1231): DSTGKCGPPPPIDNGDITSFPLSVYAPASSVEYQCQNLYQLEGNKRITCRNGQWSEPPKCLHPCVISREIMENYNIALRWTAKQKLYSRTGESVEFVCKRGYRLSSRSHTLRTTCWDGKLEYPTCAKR

Sequence of recombinant mouse C3d (C1010A) (mouse) (P01027 1002-1303 C1010A): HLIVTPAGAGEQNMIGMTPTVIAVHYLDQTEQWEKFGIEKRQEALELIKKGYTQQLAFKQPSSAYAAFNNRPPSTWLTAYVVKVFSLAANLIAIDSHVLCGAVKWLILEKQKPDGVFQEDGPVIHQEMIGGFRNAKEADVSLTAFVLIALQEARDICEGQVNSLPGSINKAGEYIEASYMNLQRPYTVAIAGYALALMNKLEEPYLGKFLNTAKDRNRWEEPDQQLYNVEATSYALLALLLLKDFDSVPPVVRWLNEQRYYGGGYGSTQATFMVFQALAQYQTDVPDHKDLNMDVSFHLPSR
Sequence of C3d C3d (P01024 1002-1303): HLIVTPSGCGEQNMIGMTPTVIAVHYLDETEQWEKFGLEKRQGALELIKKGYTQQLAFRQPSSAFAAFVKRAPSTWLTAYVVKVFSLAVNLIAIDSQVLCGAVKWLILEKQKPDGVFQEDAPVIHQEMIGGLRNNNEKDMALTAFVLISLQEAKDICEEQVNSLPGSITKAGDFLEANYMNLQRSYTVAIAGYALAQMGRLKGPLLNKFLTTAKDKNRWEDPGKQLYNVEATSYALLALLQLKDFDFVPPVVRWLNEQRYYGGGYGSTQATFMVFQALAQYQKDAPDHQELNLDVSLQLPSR

Row | Substance | Kd [1] [µM] | Kd [2] [µM]
1 | recombinant mouse Factor H-related protein B (natural protein) | 0.546 | 
2 | recombinant mouse Factor H-related protein A (prototype, class A clone 3A4/5G4) (natural protein) | 0.136 | 
3 | C3d C3d (from UniProt P01024) |  | 0.18
4 | recombinant mouse Factor H-related protein C (natural protein) | 1.04 | 
